Data: US20230357415A1 (AJOU UNIVERSITY INDUSTRY ACADEMIC COOPERATION FOUNDATION, published 2023)

T1: sIL-5Rα antigen protein (Sinobio 10392-H08H) (Homo sapiens (Human), UniProt Q01344 21-342)
T1 construct: Bought protein immobilised in the indirect ELISAs; also called soluble IL-5Rα; CD125
T1 sequence: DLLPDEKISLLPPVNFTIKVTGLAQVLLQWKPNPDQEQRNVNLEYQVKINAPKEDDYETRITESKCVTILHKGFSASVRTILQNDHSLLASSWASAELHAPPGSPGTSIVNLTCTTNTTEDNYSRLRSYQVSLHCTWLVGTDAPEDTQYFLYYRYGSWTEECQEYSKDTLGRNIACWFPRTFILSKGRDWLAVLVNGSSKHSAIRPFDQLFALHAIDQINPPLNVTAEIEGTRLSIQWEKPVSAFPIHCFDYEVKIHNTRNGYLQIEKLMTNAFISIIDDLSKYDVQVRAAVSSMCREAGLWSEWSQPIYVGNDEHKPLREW

T2: purified sIL-5Rα (Asp1-Asn313 of SEQ ID NO: 66) (Homo sapiens (Human), UniProt Q01344 21-333)
T2 construct: also called the purified sIL-5Rα
T2 sequence: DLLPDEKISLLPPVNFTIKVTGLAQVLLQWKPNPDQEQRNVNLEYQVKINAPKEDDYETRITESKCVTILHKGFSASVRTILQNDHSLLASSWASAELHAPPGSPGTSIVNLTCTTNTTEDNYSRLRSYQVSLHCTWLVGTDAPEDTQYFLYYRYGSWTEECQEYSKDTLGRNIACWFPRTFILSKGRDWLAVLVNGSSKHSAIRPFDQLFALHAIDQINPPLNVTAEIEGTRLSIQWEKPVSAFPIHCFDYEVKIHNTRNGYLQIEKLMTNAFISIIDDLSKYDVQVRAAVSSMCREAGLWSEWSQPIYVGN


What was measured:
[1] = target: T1, sIL-5Rα antigen protein (Sinobio …); assay: indirect ELISA; plate-coated sIL-5Rα, antibody 100 nM, anti-human Fc-HRP, absorbance at 450 nm
Protocol: (§1) The binding specificity of the antibody was determined using indirect ELISA. A multi-antigen ELISA was performed using four structurally different antigenic double-stranded DNA (dsDNA), insulin, the macromolecule hemocyanin, and the membrane component, cardiolipin. Specifically, sIL-4Rα antigen protein (50 ng/well, sinobio; 10402-H08H), sIL-5Rα antigen protein (50 ng/well, sinobio; 10392-H08H), dsDNA (25 ng/well, D4522; Sigma), insulin (125 ng/well, 19278; Sigma), hemocyanin (125 ng/well, H8283; Sigma), and cardiolipin (1250 ng/well, C0563; Sigma) proteins were immobilized on a 96-well plate at room temperature for 1 hour, and blocked using 2% skim milk containing 0.1% PBST (0.1% Tween20, pH 7.4, 137 mM NaCl, 10 mM phosphate, 2.7 mM KCl) at room temperature for 1 hour. After discarding the solution and then washing the same three times with 0.1% PBST, the antibody was diluted to 100 nM, added to the blocked plate in an amount of 25 μl/well, and allowed to react at room temperature for 1 hour. After discarding the solution and washing the same three times with 0.1% PBST, an anti-human Fc-HRP antibody (1:8000) as a secondary antibody was added in an amount of 25 μl/well and reacted at room temperature for 1 hour. After discarding the solution and washing three times with PBST, a TMB solution was added in an amount of 25 μl/well, color development was induced at room temperature for 2 minutes, the reaction was stopped using H₂SO₄ (2N), and the absorbance at 450 nm was measured with an ELISA reader.

[2] = target: T3, insulin (Homo sapiens (Human), UniProt P01308 25-54; P01308 90-110, Mature two-chain hormone: A and B chains joined by two interchain disulfides, plus one intrachain disulfide in the A chain; the letters do not carry these.); assay: indirect ELISA; plate-coated insulin, antibody 100 nM, anti-human Fc-HRP, absorbance at 450 nm
T3 construct: Irrelevant antigen of the multi-antigen specificity ELISA; also called insulin (125 ng/well, 19278; Sigma)
T3 sequence (P01308 25-54 limits assumed, chain 1 of 2): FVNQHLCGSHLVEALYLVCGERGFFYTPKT
T3 sequence (P01308 90-110 limits assumed, chain 2 of 2): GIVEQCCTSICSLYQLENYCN
Protocol: as §1

[3] = target: T4, sIL-4Rα (soluble IL-4Rα) antigen protein (human, UniProt P24394 26-232); assay: BLI (Octet QKe), antibody on AHC sensor, sIL-4Rα in solution, 1:1 model
T4 construct: The ELISA and Octet assays used the bought protein (Sinobio 10402-H08H); also called CD124; sinobio 10402-H08H
Protocol: Antigen affinity of antibodies was analyzed through variation in the refractive index occurring when the antibody bound to the antigen was detached therefrom while the AHC (anti-human IgG Fc capture) sensor chip moved in the order of kinetic buffer, antibody dilution solution, kinetic buffer, antigen dilution solution, and kinetic buffer. Affinity was calculated with Octet Data Analysis software 11.0 in a 1:1 binding model.

[4] = target: T2, purified sIL-5Rα (Asp1-Asn313 of SEQ ID …); assay: BLI (Octet QKe), antibody on AHC sensor, purified sIL-5Rα in solution, 1:1 model
Protocol: Specifically, lx kinetic buffer was prepared by diluting 10× kinetic buffer (ForteBio, 18-1105) in PBS. […] Affinity was calculated with Octet Data Analysis software 11.0 in a 1:1 binding model.

Binder	binding result [1]	binding result [2]	Kd [3] [nM]	koff [3] [s⁻¹]	kon [3] [M⁻¹ s⁻¹]	Kd [4] [nM]	koff [4] [s⁻¹]	kon [4] [M⁻¹ s⁻¹]
4R34.1.19 antibody (antibody, V domains shown, Parent anti-IL-4Rα antibody, tested as IgG1 and captured through human Fc; also called anti-IL-4Rα antibody (4R34.1.19)) VH: EVQLLESGGGLVQPGGSLRLSCAASGFTFSRHAMAWVRQAPGKGLEWVSAITSSGRSIYYADSVKGRFTISRDNSKNTLYLQMNSLRAEDTAVYYCARVHRAFDYWGQGTLVTVSS VL: QSVLTQPPSASGTPGQRVTISCSGSPLFPDSGSFNWYQQLPGTAPKLLIYADSHRPSGVPDRFSGSKSGTSASLAISGLRSEDEADYYCGTWDYSLSGYVLGGGTKLTVLG	binds	–	–	–	–	–	–	–
4R.N1 (antibody, V domains shown, Converted from scFab to IgG1 (pcDNA3.4 vector with IgG1 constant regions) and expressed in HEK293F) VH: EVQLLESGGGLVQPGGSLRLSCAASGFTFSRHAMAWVRQAPGKGLEWVSAITASGRSIYYADSVKGRFTISRDNSKNTLYLQMNSLRAEDTAVYYCARVHRAFDYWGQGTLVTVSS VL: QSVLTQPPSASGTPGQRVTISCSGSPLFPDSGSFNWYQQLPGTAPKLLIYADSHRPSGVPDRFSGSKSGTSASLAISGLRSEDEADYYCGTWDYSLNRYVLGGGTKLTVLG	no binding (tested: 100 nM)	no binding (tested: 100 nM)	0.17	0.000338	1.99e+06	–	–	–
4R.N3 (antibody, V domains shown, Converted from scFab to IgG1 and expressed in HEK293F) VH: EVQLLESGGGLVQPGGSLRLSCAASGFTFSRHAMAWVRQAPGKGLEWVSAITMSGRSIYYADSVKGRFTISRDNSKNTLYLQMNSLRAEDTAVYYCARVHRAFDYWGQGTLVTVSS VL: QSVLTQPPSASGTPGQRVTISCSGSPLFPDSGSFNWYQQLPGTAPKLLIYADSHRPSGVPDRFSGSKSGTSASLAISGLRSEDEADYYCGTWDYSLNRYVLGGGTKLTVLG	no binding (tested: 100 nM)	no binding (tested: 100 nM)	0.0686	0.000139	2.02e+06	–	–	–
4R.N4 (antibody, V domains shown, Converted from scFab to IgG1 and expressed in HEK293F) VH: EVQLLESGGGLVQPGGSLRLSCAASGFTFSRHAMAWVRQAPGKGLEWVSAITMSGRGIYYADSVKGRFTISRDNSKNTLYLQMNSLRAEDTAVYYCARVHRAFDYWGQGTLVTVSS VL: QSVLTQPPSASGTPGQRVTISCSGSPLFPDSGSFNWYQQLPGTAPKLLIYADSHRPSGVPDRFSGSKSGTSASLAISGLRSEDEADYYCGTWDYSLSAYVLGGGTKLTVLG	no binding (tested: 100 nM)	no binding (tested: 100 nM)	0.0997	0.000162	1.63e+06	–	–	–
4R.N5 (antibody, V domains shown, Converted from scFab to IgG1 and expressed in HEK293F) VH: EVQLLESGGGLVQPGGSLRLSCAASGFTFSRHAMAWVRQAPGKGLEWVSAITASGMSIYYADFAKGRFTISRDNSKNTLYLQMNSLRAEDTAVYYCARVHRAFDYWGQGTLVTVSS VL: QSVLTQPPSASGTPGQRVTISCSGSPLFPDSGSFNWYQQLPGTAPKLLIYADSHRPSGVPDRFSGSKSGTSASLAISGLRSEDEADYYCGTWDYSLNRYVLGGGTKLTVLG	–	–	0.0748	0.00012	1.6e+06	–	–	–
4R.N6 (antibody, V domains shown, Converted from scFab to IgG1 and expressed in HEK293F) VH: EVQLLESGGGLVQPGGSLRLSCAASGFTFSRHAMAWVRQAPGKGLEWVSAITMSGRSIYYADSVKGRFTISRDNSKNTLYLQMNSLRAEDTAVYYCARVHRAFDYWGQGTLVTVSS VL: QSVLTQPPSASGTPGQRVTISCSGSPLFPDSGSFNWYQQLPGTAPKLLIYADSHRPSGVPDRFSGSKSGTSASLAISGLRSEDEADYYCGTWDYSLNSYVLGGGTKLTVLG	no binding (tested: 100 nM)	no binding (tested: 100 nM)	0.0705	0.000126	1.79e+06	–	–	–
4R.N7 (antibody, V domains shown, Converted from scFab to IgG1 and expressed in HEK293F) VH: EVQLLESGGGLVQPGGSLRLSCAASGFTFSRHAMAWVRQAPGKGLEWVSAITASGRSIYYADSVKGRFTISRDNSKNTLYLQMNSLRAEDTAVYYCARVHRAFDYWGQGTLVTVSS VL: QSVLTQPPSASGTPGQRVTISCSGSPLFPDSGSFNWYQQLPGTAPKLLIYADSHRPSGVPDRFSGSKSGTSASLAISGLRSEDEADYYCGTWDYSLSSYVLGGGTKLTVLG	no binding (tested: 100 nM)	no binding (tested: 100 nM)	0.0431	6.07e-05	1.55e+06	–	–	–
5R65 (antibody, V domains shown, IgG1 (variable regions in a pcDNA3.4 vector encoding IgG1 constant regions); also called anti-IL-5Rα humanized antibody 5R65; anti-IL-5Rα antibody (5R65)) VH: QVQLVQSGAEVKKPGSSVKVSCKASGYTFTSYWINWVRQAPGQGLEWIGHIYPNKNENYYNHKFKDKATLTVDKSTNTAYMELSSLRSEDTAVYYCTRDYYGRSYYYAMDYWGQGTTLTVSS VL: DIQMTQSPSTLSASVGDRVTITCKASQNVGTAVAWYQQKPGKAPKLLIYWASTRHTGVPDRFSGSGSGTDFTLTISSLQPDDFATYYCQQFGRYPYTFGSGTKVEVK	–	–	–	–	–	14.5	0.000329	22700
5R65.7 (antibody, IgG1, V domains shown, IgG1) VH: QVQLVQSGAEVKKPGSSVKVSCKASGYTFTSYWINWVRQAPGQGLEWIGHIYPNKNENYYNHKFKDKATLTVDKSTNTAYMELSSLRSEDTAVYYCTREFYGRQYYQAMDYWGQGTTLTVSS VL: DIQMTQSPSTLSASVGDRVTITCKASQNVGTAVAWYQQKPGKAPKLLIYWASTRHTGVPDRFSGSGSGTDFTLTISSLQPDDFATYYCQQFGRYPYTFGSGTKVEVK	–	–	–	–	–	4.64	0.000147	31700
5R65.10 (antibody, IgG1, V domains shown, IgG1) VH: QVQLVQSGAEVKKPGSSVKVSCKASGYTFTSYWINWVRQAPGQGLEWIGHIYPNKNENYYNHKFKDKATLTVDKSTNTAYMELSSLRSEDTAVYYCTREYYGRSYYAAMDYWGQGTTLTVSS VL: DIQMTQSPSTLSASVGDRVTITCKASQNVGTAVAWYQQKPGKAPKLLIYWASTRHTGVPDRFSGSGSGTDFTLTISSLQPDDFATYYCQQFGRYPYTFGSGTKVEVK	–	–	–	–	–	8.25	0.000201	24400
5R65.14 (antibody, IgG1, V domains shown, IgG1) VH: QVQLVQSGAEVKKPGSSVKVSCKASGYTFTSYWINWVRQAPGQGLEWIGHIYPNKNENYYNHKFKDKATLTVDKSTNTAYMELSSLRSEDTAVYYCTREHYGRPYYNAMDYWGQGTTLTVSS VL: DIQMTQSPSTLSASVGDRVTITCKASQNVGTAVAWYQQKPGKAPKLLIYWASTRHTGVPDRFSGSGSGTDFTLTISSLQPDDFATYYCQQFGRYPYTFGSGTKVEVK	–	–	–	–	–	8.64	0.000199	23000
5R65.18 (antibody, IgG1, V domains shown, IgG1) VH: QVQLVQSGAEVKKPGSSVKVSCKASGYTFTSYWINWVRQAPGQGLEWIGHIYPNKNENYYNHKFKDKATLTVDKSTNTAYMELSSLRSEDTAVYYCTREYYGRTYYSAMDYWGQGTTLTVSS VL: DIQMTQSPSTLSASVGDRVTITCKASQNVGTAVAWYQQKPGKAPKLLIYWASTRHTGVPDRFSGSGSGTDFTLTISSLQPDDFATYYCQQFGRYPYTFGSGTKVEVK	–	–	–	–	–	5.95	0.000133	22400
